# Data: the RNAGym collection of RNA variant scans (doi:10.1073/pnas.2313332121)
# Fewer inactive variants are shown than the library holds.
# B1: TPR 5TU (parent)
# chain: GGAUCUUCUCGAUCUAACAAAAAAGACAAAUCUGCCACAAAGCUUGAGAGCAUCUUCGGAUGCAGAGGCGGCAGCCUUCGGUGGCGCGAUAGCGCCAACGUUCUCAACUAUGACACGCAAAACGCGUGCUCCGUUGAAUGGAGUUUAUCAUG
# Variants of: B1
# Test: polymerase ribozyme fitness, log enrichment relative to wild type (log ratio); higher = more active; in vitro selection for triplet polymerase activity
# Outline: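 For each subunit of a heterodimeric triplet polymerase ribozyme, a mutant library was built by PCR and transcribed, then taken through a single in vitro selection round in triplicate. Selection involved annealing to a biotinylated primer, the partner subunit and triplets, incubation frozen at −7 °C, gel excision of extended constructs, capture on streptavidin beads and RT-PCR. Genotypes were retained after Illumina sequencing of inputs and outputs only with ≥10 input reads and ≥1 read in each output. Fitness is defined as the logarithm of a genotype's enrichment relative to wild-type enrichment, using inverse-variance-weighted averages across replicates, with the logarithm taken to base 2.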
row,Variant,polymerase ribozyme fitness (log ratio)
1,GGAUCUUCUUGAUCUAACAAAAAAGACAAAUCUGCCACAAAGCUUGAGAGCAUCUUCUGAUGCAGAGGCGGCAGCCUUCGGUAGCGCGCUAGCGCCAACGUUCUCAACUGUGACACGCAAAACGCGUGCUCCGUUGAAUGGAGUUUAACAUG,≤ -4.2
2,GGAUCUUCUCGAUCUAACAAAAAAGACAAAUCUGCCACAAAGCUUGAGAGCAUCUUCGAAUGCCGAGGCGGCAGCCUUCGGUGGCGCCAUAGCGCCAACGUUCUCAACUAUGACACGCAAAACGCGUGCUCCGUUGAAUGGAGUUUAUCAUG,≤ -4.2
3,GGAUCUUCUCGAUCUAACAAAAGAGACAAAUCUGCCACAAAGCUUGAGAUCAUCUUCGGAUGCAGAGGCGGCAGCCUUCGGUGGCGCGAUAGCGCCAACGUUCUCAACUAUGACACGCAAAACGCGUGCUCCGUUGAAUGGAGUUGAUCAUG,-3.73
4,GGAUCUUCUCGAUCUAACAAAAAAGACAAAUCUGCCACAAAGCUUGAGAACAUCUUCGGAUGCAGAGGCGGCAGCCUUCGGCGGCGCGAUAGCGCCAACGUUCUCAACUAUGACACGCAAAACGCGUGCUCCGUUGAAUGGAGUUUAUCAUG,-0.783
5,GGAUCUUCUCGAUCUAACAAAAAAGACAAAUCUGCCACAAAGCUUGAGAGCAUCUUCGGAUGCAGAGGCGGCAGCCUUCGGUGGCGCGAUAGCGCCAACGUUCUCAACUAUGACACGCAAAACGCGUGCUCCGUUGAAUGGAGUUUAUGAUG,-2.78
6,GGAUCUUCUCGAUCUAACAAAAAAGACAAAUCUGCCACAAAGCUUGAGAGCAUGUUCGGAUGCAGAGGCGGCAGCCUUCCAUGGUGCGAUAGCGCCAACGUUCUCAACUAUGACACGCAAAACGCGUGAUCCGUCGAAUGGAGUUUAUCAUG,≤ -4.2
7,GGAUCUUCUCGAUCUAACAAAAAAGACAAAUCUGCCACAAAUCUUGAGAGCAUCUUCGGAUGCAAAGGCGGCAGCCUUCGGUGGCGCGAUAGCGUCAACGUUCUCAACUAUGACACGCAAAACGCGUGCUCCGUUGAAGGGAGUUUAUCAUG,≤ -4.2
8,GGAUCUUCUCGAUCUAACAACAAAGACAAAUCUGCCACAAAGCUUGAGAGCAUCUUCGGAUGCAGAGGCGGCAGCCUUCGGUGGCGCGAUAGCGCCAACGUUCUCAACUAUGACACGCAAAACGCGUGCUCCGUUGGAUGGAGUUUAUCAUG,-0.909
9,GGAUCUUCUCGAUCUAAGAAAAAAGACAAAUCUGCCACAAAGCUUGAGAGCAUCUUCGGAUGCAGAGGCGGUAGCCUUCGGUGGCUCCAUAGCGCCAACGUUCUCAACUAUGACACGCAAAACGCGUGCUCCGUUGAAUGGAGUUUAUCGUG,≤ -4.2
10,GGAUCUUCUCGAUCUAACAAAAAAGACAAAUCUGCCACCAAGCUUGAGAGCAUCUUCGGAUGCAGAGGCGGCAGCCUUCGCUGGUGCGAUAGCGCCAACGUUCUCAACUAUGACAAGCAAAACGCGUGCUCCGUUGAAUGCAGUUUAUCAUG,≤ -4.2
11,GGAUCUUCUCGAUCUAACAAAAAAGACAAAUCUGCCACAAAGCUUGAGAGCAUCUUCGGAAGCAGAGGCGGCAGCCUUCGGUGGCGUGAUAGCGCCAACGUCGUCAACUAUGACACGCAAAACGCGUGCCCCGUUGAAUGGAGUUUAUCAUG,≤ -4.2
12,GGAUCUUCUCGAUCUAACAAAAAAUACAAAUCUGCCACAAAGCUUGAGAGCAUCUUCGGAUGCAGAGGAGGCAGCCUUCGGGGGCGCGGUAGCGCCAACGUUCUCAACUAUGACACGCAAAACGUGUGCUCCGUUGAAUGGAGUUUAUUAUG,≤ -4.2
13,GGAUCUUCUCGAUCUAACAAAAAAGACAUAUCUGCCACAAAGCCAGAGAGCAUCUUAGGAUGCGGAGGCGGCAGCAUUCGGUGGCGCGAUAGCGACAACGUUCUCAACUAUGACACGCAAAACGCGUGCUCCGUUGAAUGGAGUUUAUCCUG,≤ -4.2
14,GGAUCUUCUCUAUCUAACAAAAAAGACAAAUCUACCACAAAGCUUGAGAACAUCUUCGGAUGCAGAGGCGGCAGCCUUCGGUGGUGCGACAGCGCCAACGUUCUCAACUAUGACACGCAAAACGCGUGCUCCGUUGAAUGGAAUUUAUCAUG,≤ -4.2
15,GGAUCUUCUUGAUCUAACAAAAAAGACAAAUCUGCCACAAACCUUGAGAGCAUCUUCGGAUGCAGAGGCGGCAGCCUUCGGUGGCGCUAUAGCGCCAACGUUCUGAACUAUGACACGCAAAACGCGUGCUCCGUUGAAUGGAUUUUAUCAUG,≤ -4.2
16,GGAUCUUCUCGAUGUAACAGAAAAGACAAAUCUGCCACAAAGCUUGAGAGCAUCUUCGGAUGCAGAGGCGGCAGACUUCGGUGGCGCGAUAGCGCGAACGUUCUCAACUAUGACACGCAAAACGCGUGCUCCGUUGAAUGCAGUUUAUCAUG,≤ -4.2
17,GGAUCUUCUCGAUCUAACAAAAAAGACAAAUCUGCCACAAAGCUUGAGAGCAUCUUCGGAUGCAGAGGCGGCAGCCUUCGGUGGCGCGAUAGGGCCAACGUUCUCAAUUAUGACAGGCAAAACGCGUGCUCCGUUGAAUGGAGUUUAUCAUG,≤ -4.2
18,GGAUCUUCUCGAUCUAACAAAAAAGACAAAUCUGCCACAAAGCUUGAGAGCAUCUUCGGAUGCAGAGGCGGCAGCCUUCGGUGGCGCGAUAGCGCCUACGUUCUCAACGAUGACACGCAAAACGCGUGCUCCGUUGAAUGGAGUUUAUCAUG,-1.62
19,GGAUCUUCUCGAUCUAUCAAAAAAGACAAAUCUGCCACAAAGCUUGAGAGCAUCUUCGGUUGCAGAGGCGGCAGCCUUCGGUGGCGCGAUAGCGCCAACGUUCUCAACUAUGACACGCAAAACGCGUGCUCCGUUGAAUGGAGUUUAUCAUG,-0.153

row,Variant,polymerase ribozyme fitness (log ratio)
1,GGAUCUUCUCGAUCUAACAAAAAAGACAAAUCUGCCACAAAGCUUGAGAUCAUCUUCGGAUGCAGAGGCGGCAGCCUUCGAUGGCGCGAUAGCGUCAACGUUCUCAACUAUGACACGCAAAACGCGUGCUCCGUUGAAUGGAGUUUAUCAUG,0.505
2,GGAUCUUCUCGAUGUAACAAAAAAUACAAAUCUGCAACAAAGCUUGAGAGCAUCGUCGGAUGCACAGGCGGCAGUCUUCGGUGGCGCGAUAGCGCCAACGUUCUCAACUAUGACACGCAAAACGCGUGCUCCGUUGAAUGCAGUUUAUCAUG,≤ -4.2
3,GGAUCUUCUCGAUCUAACUAAAAAGACAAAUCUGCCACAAAGCUUGAGAGCUUCUUCGGAUGCAGAGGCGGCAGCCUUCGGUGGCGCGAUAGCGCCGACGUUCUCAACUAUGACACGCAAAACGCGUGCUCCGUUGAAUGGAGUUUAUCAUG,-2.59
4,GGAUCUUCUCGAUCUAACAAAAAAGACAAAUCUGCCACAAAGCUUGAGAGCAUCUUCAGAUGCAGAGGCGGCAGCCUUCGGUGGCGCGAUAGCGCCAGCAUUCGCAACUAUGGCACGCUUAUCGCGUGCUCCGUUGAAUGGAGUCUAUCAUG,≤ -4.2
5,GGAUCUUCUCGAUCUAACAAAAAAGACAAAUCUGCCACAAAGCUUGCGAGCAUCUUCGGAUGCAGAGGCGGCAGCCUUCGGUGGCGCGAUAGCGCCAACGUUCUCAACUAUGACACGCAAAACGCAUGCUCCGUUGAAUGGAGUUUAUCAUG,0.0505
6,GGAUCUUCUCGAUCUAACAAAAAAGACAUAUCUGCCACAAAGCUGGAGAGCAUCUUCGGAUGCAGAGGCGGCAGCCUUCGGUGGCCCGAUAGCGCCAACGUUCUCAACUAUGACACGCAAAACGCGUGCUCCGUUGAAUGGAGUUUAACAUG,≤ -4.2
7,GGAUCUUCUCUAUCUAACAAAAAAGACAAAUCUGCCACAAAGCUUGAGAGCAUCUUCGGAUGCAGAGGCGGCAGCCUUCGGUGGCCCGAUAGCGCCAACGUUCUCAACUAUGACACGCAAAACGCGUGCUCCGUUGAAUGGAGUUUAUCAUG,-3.55
8,GGAUCUUCUAGAUCUAACAAAGAAGACAAAUCUGCCACAAAGCUUAAGAGCAUUUUCGGAUGCAGAGGCGGCAGGCUUCGGUUGCGCGAUAGCGACAACGUUCUCAACUAUGACACGCAAAACGCGUGCUCCGUUGAAUGGAGUUUAUCAUG,≤ -4.2
9,GGAUCUUCUCGAUCUAACAAUAAAGACAAAUCUGCCACAAAGCUUGAGAGCAUCUUCGGAUGCAGAGGCGGCUGCCUUCGGUGGCGCGAUAGCGCCAACGUUCUCAACUAUGACAAGCAAAACGCGUGCUCCGAUGAAUGCAGUUUAUCGUG,≤ -4.2
10,GGAUCUUCUCGAUCUAACAAAAAAGACAAAUCUGCCACAAUGCUUGAGAGCAUCUUCGGAUGCAGAGGCGGCAGCCUUCGGUGGUGCGAUUGCGCCAACGUUCUCAUCUAUGACACGCAAAACGCGUGCUCCGUUGAAUGGAGUUUAUCAUG,≤ -4.2
11,GGAUCUUCUCGAUCUAACAAAAAAGAGAAAUCUGCCACAAAGCUUGAGCUCAUUUUCGGAUGCAGAGGCGGCAGCCUUCGGUGGCGGGAUAGCGCCAACGUUCUCAACUAUGACACGCAAAACGCGUGCUCCGUUGAAUGGAGUUUAUCAUG,≤ -4.2
12,GGAUCUUCUCGAUCUAACAAAAAAGACAAAUCUGCCACAAAGCUUGAGACCAUCUCCGGAUGCAGAGGCGGCAGCCUUCGGUGGCGGGCUAGCGCCAACCUUCUCAACUAUGACACGCAGAACGUGUGCUCCGUUGAAUGGAGUUUAUCAUG,≤ -4.2
13,GGAUCUUAUCGAUCUAACAAAAAAGACAAAUCUGCCACAAAGCUUGGGCGCAUCUUCGCUUGCAGAGGCGGCAGCCUUCGGUGACGCGAUAGCGCCAACGUUCUCAACUAUGACACGCAAAACGGGUGCUCCGUUGAAUGGAGUUUAUCAUG,≤ -4.2
14,GGAUCUUCUCGGUCUAACAAAAAAGACAAAUCUGCCACAAAGCUUGAGAGCAUCUUCGGAUGCAGAGGCGGCAGCCUUCGGUGGCGCGAUAGCGCCAACGUUCUCAACUAUGACACGCAAAACGCGUGCUCCGUUGAAUGCAGUUUAUCAUG,-0.0174
15,GGAUCUUCUCGAUCUAACAAGAAAGACAAAUCUGCCACAAAGCUUUAGAGCAUCUUCGGAUGCAGAGGCGGCAGCCUUCGGUGGCGCGAUAGCGCCAACGUUCUCAACUAUGACACGCAAAACGCGUGCUCCGUUGAAUGGAGUUUAUCAUG,0.452
16,GGAUCUUCUCGAUCUAACAAAAAAGACAAAUCUGCCACAAAGCUUGAGAGCAUCUUCGGAUGCAGAGGCGGCAGCCUUCGGUGGCGCGAUAGCGCCAACGUUCUCAACUAUGACACGCAGAACGCGUGCUCCGUUGAAUGAAGUUUAUCAUG,1.23
17,GGAUCUUCUCGAUCUAACAAAAAAGACAAAUCUGCAACAAAGCUUGAGAGCAUCUUCGGAUGCAGAGGCGGCAGUCUUCGGUGGCGCGAUAGCGACAACGUUCUCAACUAUGACACGCAAAACGCGUGGUCCGUUGAAUGGAGUUUAUCAUG,≤ -4.2
18,GGAUCUUCUCGAUCUAACAAAAAAGACAAAUCUGCCACAAAGCUUGAGAGCAUGUAAGGAUGCAGAGGCGGCAGCCUUCGUUGGCGCGAUAGUGCCAACGUUCUCAACUAUGACACGCAAAACGCGUGCUCCGUUGAAUGGAGUUUAUCAUG,-0.912
19,GGAUCUUCUCGAUCUAAGAAAAAAGACAAAUCUGCCACAAAGCUUGAGAGCAUCUUCGGAUGCAGAGGCGGCAGCCUUCGGUGGCGCGAUAGCGCCAACGUUCUCAACUAUGGCACGCAAAACGCGUGCUCCGAUGAAUGGAGUUUAUCAUG,-3.95
